Test results as given in patent US7605127.

Experiments:
[1] = target: c-met protooncogene product (HGF receptor) on B5/589 human mammary epithelial cells (human) (UniProt P08581); test: competition of 125I-HGF/NK1 cross-linking to B5/589 cells by excess unlabeled HGF/NK1 or HGF/SF
[2] = target: c-met protooncogene product (HGF receptor) on B5/589 human mammary epithelial cells (human) (UniProt P08581); test: cell-based or functional assay

- affinity for Met relative to full-length HGF/SF (fold of HGF/SF affinity) [1]: 0.25
- [3H]-thymidine incorporation in B5/589 cells, percent of the maximal DNA synthesis elicited by HGF/SF (% of maximal HGF/SF response at 8 nM) [2]: 20
- inhibition of HGF/SF mitogenic activity in the B5/589 bioassay: molar excess for ~50% reduction (fold molar excess over HGF/SF) [2]: 20
Substance: HGF/NK1 (truncated HGF variant; N-terminal domain and first kringle domain), eukaryotically expressed from the pH46 (2.2 kb) coding region (from UniProt P14210 32-210) (ligand)
